Test results from the domain aggregation screens of Martell et al. (2025).

Test: soluble fraction after stress (log2 fold change); higher = more stays soluble; pooled small domains, quantitative proteomics
Settings: stress: 50 degC
In short: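 The stress applied to every library was 50°C. These custom libraries of small protein domains were pooled and measured at high throughput with quantitative proteomics as the read-out. Aggregation propensity is expressed as the base-two logarithm of the fold change in how much of each protein remains soluble. The higher the value, the more of that protein stays in solution.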

Sequence	soluble fraction (log2)
HMLSDFHLNHDSIVNHTVQKKETIFSLSKKYGLSINEIIKANPGIQIDKLKRRSILIIPLRKK	-1.9
HMLSDLTPGDLVVHATHGIGRFLGIRKLELEGMTKDYITIQYRGNENLYVPVTQMDLVSRYI	-0.292
HMLSGGEVKRIEIATILARKSGLMIFDEPEAGIDLWSFARLVETFEDIRSNTSGSLVIISHQ	0.00488
HMLSKEERRSQLLDLGVRLLSTRSLDELSIDLLAEEAGISRGLLYHYFGNKHDFHEAVVRRAADDLI	-1.75
HMLSLKAQVYEIIRQKILQQEYALGEKINIDTVADELKISNSPIREALMMLSQDGLIEMVPNNGARVI	-0.772
HMLSLSDIINDVMERLTREKNLTFDELLGEKRERRRIVYTFLALLELIRLKMIKAYQTAAFGVIRIFPR	-0.898
HMLSLTSRQQEIFDLIKGHIKKTGMPPTRSEIALHFGFRSANSAEEHLRALARKGFIELIPGTSRGIKLIE	-0.892
HMLSPPWYEYHRKVQAMFGRDPEVHIKDLDDLGDGKFSYMILVYNKEKAEAIKAILPQKVEMGNVTIETAI	0.361
HMLSRNEWLVMEALWERPSTLMELVRQLGQEPPGWAKSTTATMVRRMEEKGLIRHEAGSKARVYHP	-0.885
HMLSSAAAIDRILAGGTAAMNHRQFDAALTSFNTVIEMRPDFAEGWNKRATLYYLIGEYERSIADVERTLA	0.1
HMLSTRERMSSLMAQLQVQQFMPFHRLFTISEGRMGVIVTFLAMMELVKENLIKLIQAQEYGPIHVSLG	0.0428
HMLSVRERMSAILVSLEGERYADFTGLFDPTEGKGGVTVTFLAILELLKESMIDVVQNELYGPIHVRAA	-0.368
HMLSVRNRMSDVLKSLDDGEFHRFESLFNLEEGRLGVVVTFLAMLELAKEMLVEIVQNESLGPIYLKSR	-0.0774
HMLSVRQRMGELLERLADGQFHRFESLFTVEEGKLGVVVTFLGLLTLAKEQLLDIVQEGPTAPIYVKSLA	-0.437
HMLSVTLTVLPQQAGERLDAFAAAESTLSRSAAAKLIEDGQITVNGARAAKNYRLRAGDVIEIDEPEPI	0.00149
HMLTAPMPGTIQQILVTKGQKVRSGQTLMILEAMKMEHKIKAPNSGEIISINYSLGNRVEMGANLIEI	-1.13
HMLTDAAAVKRSVRNLVQYGFYEKPFHPEIGSGVRDLLFENMTPFVANNLSKQIEEIITNYEPRA	-0.396
HMLTDMSKIRKVLKLYGKGNSKLFISTYLSLSRNTVKKYISLFEVSGKTIEEILAKSDSELELLFSG	-0.919
HMLTEREQDTLNFIRQYIDEQGRSPLVSEIAKGLGIKSQGTTHRYIQALVDAGLLERHVGRTRGLHLT	0.0721

Sequence	soluble fraction (log2)
HMLTGADAEKATAAAQAEFPGGTVLRVETDADGTYEAHVRKADGTEVEVKMDKDFKVTSVEE	0.0905
HMLTLAVPNSINMRLDKYLSENIDYLSRSKIQGLINDGKVTINGENEKSSYKLNGDESIVIYYEE	-0.0746
HMLTPQEIGSRLKLVRQGLQLKQQEVAEIIGTSQLKISKIEQGATVTTPDFLKLLAFYSQSVSLDILF	-0.564
HMLTRQRKQLLEYLSKHTDEQMTARQIADALTAESISISAVYRNLSALEEEGILKRSIRENTREVYYQYIA	-0.973
HMLTSIDQMLKLAMPDSDITVSKMNGLILLTGTVKAPEDAAEAERLVQAFSAPPPGQPPVTVVSRLRTA	0.0549
HMLTTMSSQWKPSLDAIEILEKSGIAYSFIEDAIPEFVLYWRERGISHGAWNTKFVEHIRKQWAKFEAS	-1.35
HMLTTVAAQRAALHQEEDITKLREIILKLVPFWGLDGGAYADKETSIQLERQYRESFDQAVSAARRSGQA	-0.303
HMLTWNQLGLITKPVVFLDGTGYYARLFEAFEHMISTGFVKENYRAMMNRATSVEEAVRIASSPAPKVD	-0.0676
HMLVGGPDTPSKVTVSFDLGSRQAVDELTERAGAAGGRIGDIDDYPFMYQRQFDDPDGYHYSPFWMKP	-0.149
HMLVTQSITVPMAMSGIRLDAALAMLFPDHSRNRLKAWLDDGHILVDGAVWAGKQRLEGNEEITATLPEAK	-0.207
HMLYDNQLPDWAGQMVKNHGLTISPKALVILVDHIGNDLSRIENEIEKLMLNLGTRKSITEDDVEN	-1.28
HMLYETLKKGDQGTSVKTLQEKLKALGYLTGAADGKYGAGTETAVKSFQKAAGLTETGTADPETLSAVYAA	0.17
HMLYITEIQKKIMDAFLVVANESNSGTRITMNEIANKVRMTPQAIYRKHFKSVIEISDTIRD	-0.531
HMMEERVIEFANVLRRNGVRVSLAENMDAFRALKSLGISDPLLFRHALRATLIKRGSDIQPFEELFDFFFL	-1.26
HMNAAFMKAERLLAILNILLTGKRVSSTELAKKLEVSVRTVYRDVEALSEAGFPVYATMGRDGGFGLIEGF	-1.95
HMNADAIIGRMGKVTEPITPDGYGRVEIDGDSWKATAVGGVAIAEGTRVSVVSLDSIIITVKTV	-0.293
HMNADAIVGRTGVVTEAIAADGFGRVQIDGDSWKAKASGNNGIDVGAKVRVLRIDSIILTVEK	0.0422
HMNAELSTVQAAEVLNVSRPFLIKLLEDGAIPHRKVGKHRRVRMEDVMSYKAAIDTEREAVLDQLAA	0.123
HMNAISIDEAKKIALAKVSGASDQHIRIEADHDDGRLVYEGEIHYGRVEYEFEIDGSTGAIIEWDADRK	-0.341
